Reference: article PMC3416671, “Neuronal RING finger protein 11 (RNF11) regulates canonical NF-κB signaling” (Journal of Neuroinflammation, 2012)

Target: T1, endogenous RNF11 (murine primary cortical neurons) (mouse (endogenous in primary cortical …, UniProt Q9QYK7 1-154))
T1 construct: RING finger protein 11 (RNF11), endogenous in primary cortical neurons of C57BL/6 mice; also called RING finger protein 11; source: endogenous, murine primary cortical neuron lysate
T1 sequence (looked up): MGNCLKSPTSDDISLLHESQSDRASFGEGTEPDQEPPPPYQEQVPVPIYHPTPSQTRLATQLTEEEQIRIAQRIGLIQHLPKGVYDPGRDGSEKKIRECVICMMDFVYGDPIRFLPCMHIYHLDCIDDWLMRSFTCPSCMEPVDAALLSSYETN
Assay: co-IP; lysates of murine primary cortical neurons stimulated with 10 ng/ml TNF-α for 0 or 30 minutes; IP with RNF11 antibody; control IP with antibody omitted; immunoblot with anti-A20 and Itch; densitometry normalised to input, 0 minutes set at 100%
Details: partners not purified

Row | Binder | A20 immunoreactivity in RNF11 immunoprecipitates after 30 minutes of TNF-α, relative to 0 minutes (100%) | Itch immunoreactivity in RNF11 immunoprecipitates after 30 minutes of TNF-α, relative to 0 minutes (100%)
1 | endogenous A20 (murine primary cortical neurons) (natural protein, UniProt Q60769 1-775, looked up, A20 (TNF-α-induced protein 3, TNFAIP3), endogenous in primary cortical neurons of C57BL/6 mice; also called TNFAIP3; source: endogenous, murine primary cortical neuron lysate) MAEQLLPQALYLSNMRKAVKIRERTPEDIFKPTNGIIYHFKTMHRYTLEMFRTCQFCPQFREIIHKALIDRSVQASLESQKKLNWCREVRKLVALKTNGDGNCLMHAACQYMWGVQDTDLVLRKALCSTLKETDTRNFKFRWQLESLKSQEFVETGLCYDTRNWNDEWDNLVKMASADTPAARSGLQYNSLEEIHIFVLSNILRRPIIVISDKMLRSLESGSNFAPLKVGGIYLPLHWPAQECYRYPIVLGYDSQHFVPLVTLKDSGPELRAVPLVNRDRGRFEDLKVHFLTDPENEMKEKLLKEYLIVMEIPVQGWDHGTTHLINAAKLDEANLPKEINLVDDYFELVQHEYKKWQENSDQARRAAHAQNPLEPSTPQLSLMDIKCETPNCPFFMSVNTQPLCHECSERRQKNQSKLPKLNSKLGPEGLPGVGLGSSNWSPEETAGGPHSAPPTAPSLFLFSETTAMKCRSPGCPFTLNVQHNGFCERCHARQINASHTADPGKCQACLQDVTRTFNGICSTCFKRTTAEPSSSLTSSIPASCHQRSKSDPSQLIQSLTPHSCHRTGNVSPSGCLSQAARTPGDRAGTSKCRKAGCMYFGTPENKGFCTLCFIEYRENKQSVTASEKAGSPAPRFQNNVPCLGRECGTLGSTMFEGYCQKCFIEAQNQRFHEARRTEEQLRSSQHRDMPRTTQVASRLKCARASCKNILACRSEELCMECQHLSQRVGSVAHRGEPTPEEPPKQRCRAPACDHFGNAKCNGYCNECYQFKQMYG | 129% | –
2 | endogenous Itch (murine primary cortical neurons) (natural protein, E3 ligase Itch (also known as AIP4), endogenous in primary cortical neurons of C57BL/6 mice; also called AIP4; source: endogenous, murine primary cortical neuron lysate) not shown | – | 166%
